Here are results for two molecules from patent US20030082745A1 (published 2003).

Experiment [1] has as its target T1, pol κ (primary protein product of POLK; DNA polymerase κ) (human, UniProt Q9UBT6 1-870).
T1 construct: Tested as a yeast two-hybrid fusion (FLAG-modified pGBT9 / pGAD424); also called DINB1 product
T1 sequence (looked up): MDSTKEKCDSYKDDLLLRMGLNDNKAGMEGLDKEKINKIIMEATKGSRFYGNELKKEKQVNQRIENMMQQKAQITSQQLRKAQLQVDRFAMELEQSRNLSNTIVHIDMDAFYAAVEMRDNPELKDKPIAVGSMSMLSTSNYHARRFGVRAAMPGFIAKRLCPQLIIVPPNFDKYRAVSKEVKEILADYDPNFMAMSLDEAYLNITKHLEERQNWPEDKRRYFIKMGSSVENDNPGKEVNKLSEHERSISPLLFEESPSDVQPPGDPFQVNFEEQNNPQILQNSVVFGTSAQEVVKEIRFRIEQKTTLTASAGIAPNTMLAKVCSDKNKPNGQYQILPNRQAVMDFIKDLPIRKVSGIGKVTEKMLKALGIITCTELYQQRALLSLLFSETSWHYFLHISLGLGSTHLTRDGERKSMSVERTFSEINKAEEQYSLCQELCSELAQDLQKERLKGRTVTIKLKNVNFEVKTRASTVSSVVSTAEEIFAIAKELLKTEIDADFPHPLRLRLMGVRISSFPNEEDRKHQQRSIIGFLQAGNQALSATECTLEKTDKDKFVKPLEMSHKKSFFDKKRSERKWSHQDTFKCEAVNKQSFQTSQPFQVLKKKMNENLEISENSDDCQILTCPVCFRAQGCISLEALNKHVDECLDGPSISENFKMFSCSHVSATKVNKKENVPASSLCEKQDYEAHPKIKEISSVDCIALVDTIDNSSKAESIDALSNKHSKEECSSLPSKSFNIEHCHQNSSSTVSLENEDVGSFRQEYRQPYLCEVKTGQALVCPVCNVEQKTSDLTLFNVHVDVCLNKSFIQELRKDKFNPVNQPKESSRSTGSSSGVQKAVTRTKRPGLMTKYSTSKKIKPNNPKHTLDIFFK
The experiment is described as follows: yeast two-hybrid.

Experiment [2] concerns the target T2, pol κ76 (76 kDa alternatively spliced isoform product of POLK) (human, UniProt Q9UBT6 1-870).
T2 construct: Tested as a yeast two-hybrid fusion (FLAG-modified pGBT9 / pGAD424); also called 76-kDa pol κ isoform
T2 sequence: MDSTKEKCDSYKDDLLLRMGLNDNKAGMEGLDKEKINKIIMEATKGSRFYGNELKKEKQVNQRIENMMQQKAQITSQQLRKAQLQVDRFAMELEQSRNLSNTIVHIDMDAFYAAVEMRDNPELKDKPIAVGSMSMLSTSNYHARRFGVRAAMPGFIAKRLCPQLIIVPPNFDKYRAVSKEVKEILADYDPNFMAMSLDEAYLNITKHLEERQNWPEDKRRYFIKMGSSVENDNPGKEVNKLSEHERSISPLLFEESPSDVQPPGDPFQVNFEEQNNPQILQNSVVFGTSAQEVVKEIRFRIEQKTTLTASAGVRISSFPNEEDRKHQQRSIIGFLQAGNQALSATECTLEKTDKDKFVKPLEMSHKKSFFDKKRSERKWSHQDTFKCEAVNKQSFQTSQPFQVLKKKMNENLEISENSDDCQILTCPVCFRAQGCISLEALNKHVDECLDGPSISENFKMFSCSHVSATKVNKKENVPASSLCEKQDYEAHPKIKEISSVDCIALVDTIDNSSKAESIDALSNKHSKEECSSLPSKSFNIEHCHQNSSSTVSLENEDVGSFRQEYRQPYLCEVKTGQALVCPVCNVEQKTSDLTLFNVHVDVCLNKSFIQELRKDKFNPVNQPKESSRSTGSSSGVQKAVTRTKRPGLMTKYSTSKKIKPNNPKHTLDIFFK
The experiment is described as follows: yeast two-hybrid.

B1: GPBP (Goodpasture antigen binding protein) (enzyme, UniProt Q9Y5P4 1-624, looked up)
chain: MSDNQSWNSSGSEEDPETESGPPVERCGVLSKWTNYIHGWQDRWVVLKNNALSYYKSEDETEYGCRGSICLSKAVITPHDFDECRFDISVNDSVWYLRAQDPDHRQQWIDAIEQHKTESGYGSESSLRRHGSMVSLVSGASGYSATSTSSFKKGHSLREKLAEMETFRDILCRQVDTLQKYFDACADAVSKDELQRDKVVEDDEDDFPTTRSDGDFLHSTNGNKEKLFPHVTPKGINGIDFKGEAITFKATTAGILATLSHCIELMVKREDSWQKRLDKETEKKRRTEEAYKNAMTELKKKSHFGGPDYEEGPNSLINEEEFFDAVEAALDRQDKIEEQSQSEKVRLHWPTSLPSGDAFSSVGTHRFVQKPYSRSSSMSSIDLVSASDDVHRFSSQVEEMVQNHMTYSLQDVGGDANWQLVVEEGEMKVYRREVEENGIVLDPLKATHAVKGVTGHEVCNYFWNVDVRNDWETTIENFHVVETLADNAIIIYQTHKRVWPASQRDVLYLSVIRKIPALTENDPETWIVCNFSVDHDSAPLNNRCVRAKINVAMICQTLVSPPEGNQEISRDNILCKITYVANVNPGGWAPASVLRAVAKREYPKFLKRFTSYVQEKTAGKPILF
notes: Two-hybrid construct (fusion domain, limits, species) is not described; also called product of COL4A3BP
In the case of B1, the binding result in experiment [1] and in experiment [2] was “no binding” throughout.

B2: GPBPΔ26 (Goodpasture antigen binding protein alternatively spliced product deleted for 26 amino acid residues) (enzyme)
chain: MSDNQSWNSSGSEEDPETESGPPVERCGVLSKWTNYIHGWQDRWVVLKNNALSYYKSEDETEYGCRGSICLSKAVITPHDFDECRFDISVNDSVWYLRAQDPDHRQQWIDAIEQHKTESGYGSESSLRRHGSMVSLVSGASGYSATSTSSFKKGHSLREKLAEMETFRDILCRQVDTLQKYFDACADAVSKDELQRDKVVEDDEDDFPTTRSDGDFLHSTNGNKEKLFPHVTPKGINGIDFKGEAITFKATTAGILATLSHCIELMVKREDSWQKRLDKETEKKRRTEEAYKNAMTELKKKSHFGGPDYEEGPNSLINEEEFFDAVEAALDRQDKIEEQSQSEKVRLHWPTSLPSGDAFSSVGTHRFVQKVEEMVQNHMTYSLQDVGGDANWQLVVEEGEMKVYRREVEENGIVLDPLKATHAVKGVTGHEVCNYFWNVDVRNDWETTIENFHVVETLADNAIIIYQTHKRVWPASQRDVLYLSVIRKIPALTENDPETWIVCNFSVDHDSAPLNNRCVRAKINVAMICQTLVSPPEGNQEISRDNILCKITYVANVNPGGWAPASVLRAVAKREYPKFLKRFTSYVQEKTAGKPILF
notes: Splice isoform of the entry named (26 residues deleted); Two-hybrid construct not described; also called GPBPΔ26
With B2, the binding result in experiment [1] and in experiment [2] was “no binding” each time.
